In patent US20140341937A1 (US Dept. of Health and Human Services, published 2014):

T1: CCR4 (human, UniProt P51679 1-360)
T1 sequence (looked up): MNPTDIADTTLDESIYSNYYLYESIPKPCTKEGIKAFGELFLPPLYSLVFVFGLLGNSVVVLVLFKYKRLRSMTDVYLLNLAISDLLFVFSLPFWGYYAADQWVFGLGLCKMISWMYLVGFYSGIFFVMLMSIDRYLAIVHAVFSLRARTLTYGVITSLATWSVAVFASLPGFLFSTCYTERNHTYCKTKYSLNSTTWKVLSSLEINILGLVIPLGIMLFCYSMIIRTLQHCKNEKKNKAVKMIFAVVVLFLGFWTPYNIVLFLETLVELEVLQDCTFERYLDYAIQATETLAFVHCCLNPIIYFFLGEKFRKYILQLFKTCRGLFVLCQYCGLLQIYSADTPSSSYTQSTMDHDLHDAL


Legend:
CCR8 = biological target: T2, CCR8 (human, UniProt P51685 1-355); assay: flow cytometry on HEK293/CCR8 cells, 30 min at 4° C., anti-EDN antibody detection
T2 construct: whole, on cells; also called human CCR8; HEK/CCR8

CCR4 = biological target: T1, CCR4; assay: cell-based or functional assay

T2 sequence (P51685 whole entry): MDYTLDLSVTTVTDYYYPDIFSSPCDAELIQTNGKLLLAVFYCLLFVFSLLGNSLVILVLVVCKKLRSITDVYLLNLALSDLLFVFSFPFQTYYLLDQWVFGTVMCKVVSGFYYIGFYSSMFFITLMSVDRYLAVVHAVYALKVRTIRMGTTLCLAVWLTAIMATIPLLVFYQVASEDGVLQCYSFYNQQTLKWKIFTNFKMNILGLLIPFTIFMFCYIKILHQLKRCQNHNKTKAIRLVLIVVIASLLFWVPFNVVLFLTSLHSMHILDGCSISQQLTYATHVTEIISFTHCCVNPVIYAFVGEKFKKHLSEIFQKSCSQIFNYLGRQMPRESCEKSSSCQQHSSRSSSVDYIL

Binder	binding result (CCR8)	killing of human T lymphoblastoid CCRF-CEM cells in vitro (IC50) (CCR4)
MC148-EDN (ligand, also called MC148-chemotoxin) MALARRKCCLNPTNRPIPNPLLQDLSRVDYQAIGHDCGREAFRVTLQDGRQGCVSVGNKSLLDWLRGHKDLCPQIWSGCESLEFNDAQAPKSLEGGGGSKPPQFTWAQWFETQHINMTSQQCTNAMQVINNYQRRCKNQNTFLLTTFANVVNVCGNPNMTCPSNKTRKNCHHSGSQVPLIHCNLTTPSPQNISNCRYAQTPANMFYIVACDNRDQRRDPPQYPVVPVHLDRIIGSAEEQKLISEEDLAHHHHHH	binds	–
TARC-PE38 (ligand) MARGTNVGRECCLEYFKGAIPLRKLKTWYQTSEDCSRDAIVFVTVQGRAICSDPNNKRVKNAVKYLQSLERSDGGGSGGGGSLEASGGPEGGSLAALTAHQACHLPLETFTRHRQPRGWEQLEQCGYPVQRLVALYLAARLSWNQVDQVIRNALASPGSGGDLGEAIREQPEQARLALTLAAAESERFVRQGTGNDEAGAANGPADSGDALLERNYPTGAEFLGDGGDVSFSTRGTQNWTVERLLQAHRQLEERGYVFVGYHGTFLEAAQSIVFGGVRARSQDLDAIWRGFYIAGDPALAYGYAQDQEPDARGRIRNGALLRVYVPRSSLPGFYRTSLTLAAPEAAGEVERLIGHPLPLRLDAITGPEEEGGRLETILGWPLAERTVVIPSAIPTDPRNVGGDLDPSSIPDKEQAISALPDYASQPGKPPREDLKRSAEEQKLISEEDLAHHHHHH	–	3 to 8 nM
